The record followed here is PMC9464187 (2022).

Assay [1] has as its target HLA-A*11:01 presenting the KRAS^G12D decamer peptide …. The assay is described as follows: SPR. (Surface plasmon resonance follows binding to a sensor surface in real time, without labels.)
Assay [2] has as its target HLA-A*11:01 presenting the KRAS G12D decamer peptide …. The assay is described as follows: SPR; biotinylated pHLA (400-500 RU) immobilised on a streptavidin-coated CM5 chip, Biacore T200; multi cycle steady state analysis, ten 2-fold dilutions of TCR starting at 50 µM; one site fit.
Assay [3] has as its target HLA-A*11:01 presenting the KRAS^G12D decamer peptide … (human | not stated). Put plainly: SPR; biotinylated pHLA (400-500 RU) immobilised on a streptavidin-coated CM5 sensor chip, Biacore T200; multi cycle steady state analysis, 10-point titration of JDI TCR from 50 µM to 0.1 µM; one site total least squares fit.
In assay [4] the target is T1, KRAS WT peptide on HLA-A*11:01 (human).
T1 peptide: VVVGAGGVGK
Put plainly: SPR; >4000-fold weaker than to KRAS G12D; soluble, with an engineered disulfide between the constant domains.

Assay [5] addresses T2, KRAS G12D peptide on HLA-A*11:01 (human).
T2 peptide: VVVGADGVGK
The assay is described as follows: SPR single cycle kinetics; soluble, with an engineered disulfide between the constant domains.

A value given as a limit tells only on which side of the number the result lay.

Take JDI TCR (parent TCR) JDIa96b35: the other: t1/2 in assay [1] is above 20 h.
As to JDI TCR (parent TCR), the Kd came out at 62.8 µM in assay [2] and 63 µM in assay [3].
Turning to JDI TCR (parent TCR) JDIa9bwt, the other: t1/2 in assay [1] was 0.3 h.

B1: JDIa41b1 TCR (TCR)
alpha TRAV19*01 CDR3: AMSVPSGDGSYQFT
beta TRBV6-2*01 CDR3: ASKVGPGQHNSPLH
B1 displayed a dissociation constant Kd in assay [4] of 3 µM. The molecule also yielded a t1/2 in assay [5] of 1.2 h.

One may read the Kd as the equilibrium constant for the complex coming apart.
